Two molecules from PMC6201868, “Significance of a histone-like protein with its native structure for the diagnosis of asymptomatic tuberculosis” (PLoS ONE, 2018) can be followed below.

For data set [1], the target named is rFull-MDP1 (full-length HIS-tagged recombinant mycobacterial DNA-binding protein 1) (M. tuberculosis) (UniProt P9WMK7). The data set can be described thus: cross-linking.
Data set [2] concerns the molecule itself. The data set can be described thus: […], buffer pH 7.0 with 300 mM NaCl, […].

What is called stoichiometry N is a count of units in the complex or per binding partner.

As for “rFull-MDP1 (full-length HIS-tagged recombinant mycobacterial DNA-binding protein 1) (from UniProt P9WMK7 1-216) (natural protein)”, the stoichiometry N in data set [1] was found to be 2.

B1: rN-MDP1 (amino acids 1-100 of mycobacterial DNA-binding protein 1, histidine-tagged) (domain or fragment)
chain: MGMNKAELIDVLTQKLGSDRRQATAAVENVVDTIVRAVHKGDSVTITGFGVFEQRRRAARVARNPRTGETVKVKPTSVPAFRPGAQFKAVVSGAQRLPAE
notes: also called N-terminal half of MDP1
B1: the “stoichiometry N” value in data set [2] came out at 2.
